The values that follow come from US20260201029A1.

For assay [1], the target named is cynomolgus FcγRIIb (cynomolgus). The assay can be described thus: SPR, receptor captured by anti-his, antibody injected, steady-state fit. (In general: Surface plasmon resonance follows binding to a sensor surface in real time, without labels.)
A further assay has as its target human FcγRIIa (human) (UniProt P12318). The description is as above.
Another assay concerns the target human FcγRIIb/c (human) (UniProt P31994). The description is as above.
Assay [2] concerns the target cynomolgus FcγRIIa (cynomolgus). Described as above.
Assay [3] concerns the target cynomolgus FcγRIII (cynomolgus) (UniProt Q8SPW2). The assay can be described thus: SPR, receptor captured by anti-his, antibody injected, 1:1 fit.
For assay [4], the target named is human FcγRIIIa 158F allele (human) (UniProt P08637). The assay is described as above.
human FcγRIIIa 158F allele (human), sequence (P08637 17-208 limits assumed): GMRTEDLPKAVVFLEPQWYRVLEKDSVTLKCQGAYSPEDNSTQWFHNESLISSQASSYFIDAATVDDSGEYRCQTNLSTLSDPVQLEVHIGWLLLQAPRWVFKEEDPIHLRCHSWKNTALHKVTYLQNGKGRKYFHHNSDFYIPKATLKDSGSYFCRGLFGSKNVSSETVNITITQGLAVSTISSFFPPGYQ
For assay [5], the target named is cynomolgus FcγRI (cynomolgus). The description is as above.
For the next assay, the target named is human FcγRI (human) (UniProt P12314). The description is as above.
human FcγRI (human), sequence (P12314 16-288 limits assumed): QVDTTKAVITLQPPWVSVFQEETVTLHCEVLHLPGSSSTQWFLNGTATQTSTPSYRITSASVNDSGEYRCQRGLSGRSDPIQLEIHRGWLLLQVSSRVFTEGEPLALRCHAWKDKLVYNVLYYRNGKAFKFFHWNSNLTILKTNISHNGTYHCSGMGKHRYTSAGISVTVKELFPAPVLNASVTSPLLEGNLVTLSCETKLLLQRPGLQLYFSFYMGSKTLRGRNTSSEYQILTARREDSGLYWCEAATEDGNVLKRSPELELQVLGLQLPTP
The target of assay [6] is human FcγRIIIa 158V allele (human) (UniProt P08637). Described as above.
human FcγRIIIa 158V allele (human), sequence (P08637 17-208 F176V limits assumed): as the sequence (P08637 17-208 limits assumed) above, with F160V counted along it

human FcγRIIb/c (human), sequence (P31994 46-217 limits assumed): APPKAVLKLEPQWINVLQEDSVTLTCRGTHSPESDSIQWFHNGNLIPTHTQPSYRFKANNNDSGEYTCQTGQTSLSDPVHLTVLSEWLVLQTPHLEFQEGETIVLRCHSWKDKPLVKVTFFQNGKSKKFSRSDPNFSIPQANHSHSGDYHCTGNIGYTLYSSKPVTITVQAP
human FcγRIIa (human), sequence (P12318 36-218 limits assumed): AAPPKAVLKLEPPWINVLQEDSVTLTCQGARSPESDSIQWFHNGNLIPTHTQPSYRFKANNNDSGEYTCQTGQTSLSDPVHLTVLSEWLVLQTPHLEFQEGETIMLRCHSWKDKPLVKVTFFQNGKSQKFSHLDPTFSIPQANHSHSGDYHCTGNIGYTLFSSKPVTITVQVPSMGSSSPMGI
cynomolgus FcγRIII (cynomolgus), sequence (Q8SPW2 17-208 limits assumed): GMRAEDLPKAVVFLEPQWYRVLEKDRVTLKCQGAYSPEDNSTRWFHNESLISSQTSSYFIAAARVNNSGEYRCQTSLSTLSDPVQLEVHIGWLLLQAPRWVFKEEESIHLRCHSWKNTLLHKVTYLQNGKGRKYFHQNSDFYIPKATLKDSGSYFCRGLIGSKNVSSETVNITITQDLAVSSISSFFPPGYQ

For orientation: Kd means the equilibrium constant for the complex coming apart. With wt IgG1 control (antibody), the Fold increase in binding (vs wt IgG1 control) (in [1]; with human FcγRIIa (human); with human FcγRIIb/c (human); in assay [2]; in assay [5]; with human FcγRI (human)) was 1 fold in each case. Moreover, the Kd in assay [1] turned out to be 4.45 µM; in the assay with human FcγRIIa (human), 9.33 µM; with human FcγRIIb/c (human), 11.2 µM; in assay [2] it was 8.15 µM; in assay [3] it was 0.395 µM; in assay [4], 3.78 µM. Further, the Kd came out at 0.0015 µM in assay [5], 0.0029 µM in the assay with human FcγRI (human) and 0.905 µM in assay [6].
